The supplement of paper PMC9112550, “Optimization of the antimicrobial peptide Bac7 by deep mutational scanning” (BMC Biology, 2022)

Test system: Escherichia coli TOP10
Assay: shrunken log2 fold change of peptide-encoding DNA abundance (4.5 h post-induction vs induction); higher = less antimicrobial activity (less host growth inhibition)
Details: time post-induction: 4.5 h; library: site-saturation at positions 5, 18, 19, 20
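Also: peptides expressed intracellularly from a pBAD plasmid library in pooled LB shake-flask culture, induced with 0.3% L-arabinose, DNA abundance read by NGS, three biological replicates, DESeq2 with apeglm shrinkage.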

Sequence | shrunken log2 fold change
RRIRWRPPRLPRPRPRPYHLPRP | -0.146
RRIRVRPPRLPRPRPRPVNEPRP | 0.0839
RRIRKRPPRLPRPRPRPPEMPRP | 0.262
RRIRPRPPRLPRPRPRPYLCPRP | -0.504
RRIRNRPPRLPRPRPRPEKSPRP | 0.31
RRIRIRPPRLPRPRPRPDWRPRP | 0.194
RRIRVRPPRLPRPRPRPAVCPRP | 0.258
RRIRERPPRLPRPRPRPEPSPRP | 0.0429
RRIRNRPPRLPRPRPRPDSGPRP | -0.166
RRIRDRPPRLPRPRPRPHEYPRP | -0.01
RRIRDRPPRLPRPRPRPHAYPRP | -0.218
RRIRGRPPRLPRPRPRPIWDPRP | 0.474
RRIRFRPPRLPRPRPRPPIQPRP | 0.0333
RRIRHRPPRLPRPRPRPVLGPRP | 0.463
RRIRVRPPRLPRPRPRPCDEPRP | -0.488
RRIRERPPRLPRPRPRPYFQPRP | -0.967
RRIRERPPRLPRPRPRPWTSPRP | -0.028
RRIRYRPPRLPRPRPRPAQNPRP | -0.0465
RRIRTRPPRLPRPRPRPTTFPRP | -0.012
RRIRLRPPRLPRPRPRPYYYPRP | -1.03
RRIRDRPPRLPRPRPRPMPIPRP | 0.000679
RRIRTRPPRLPRPRPRPPYLPRP | -0.365
RRIRCRPPRLPRPRPRPYRGPRP | -0.992
RRIRERPPRLPRPRPRPCVHPRP | -0.0795
RRIRIRPPRLPRPRPRPNNSPRP | -0.655

Sequence | shrunken log2 fold change
RRIRMRPPRLPRPRPRPPWYPRP | 0.117
RRIRMRPPRLPRPRPRPNQKPRP | 0.00203
RRIRFRPPRLPRPRPRPDVEPRP | 0.00816
RRIRERPPRLPRPRPRPNRAPRP | 0.0169
RRIRMRPPRLPRPRPRPAYDPRP | -0.0572
RRIRKRPPRLPRPRPRPDAIPRP | 0.889
RRIRDRPPRLPRPRPRPGKMPRP | 0.0346
RRIRNRPPRLPRPRPRPVNEPRP | -0.0227
RRIRKRPPRLPRPRPRPIDPPRP | -0.0828
RRIRWRPPRLPRPRPRPMKIPRP | -0.0129
RRIRIRPPRLPRPRPRPKITPRP | -0.83
RRIRQRPPRLPRPRPRPVMVPRP | 0.11
RRIRWRPPRLPRPRPRPPKQPRP | 1.07
RRIRRRPPRLPRPRPRPGWFPRP | 0.283
RRIRDRPPRLPRPRPRPTLEPRP | 1.06
RRIRCRPPRLPRPRPRPDRRPRP | 0.0327
RRIRLRPPRLPRPRPRPEINPRP | -0.0201
RRIRMRPPRLPRPRPRPVPAPRP | 1.11
RRIRQRPPRLPRPRPRPEGTPRP | 0.231
RRIRKRPPRLPRPRPRPMENPRP | 0.0428
RRIRCRPPRLPRPRPRPVSIPRP | -0.549
RRIRMRPPRLPRPRPRPNKYPRP | -0.148
RRIRIRPPRLPRPRPRPQQWPRP | -0.421
RRIRGRPPRLPRPRPRPIMNPRP | 0.237
RRIRCRPPRLPRPRPRPSGMPRP | -0.35

Sequence | shrunken log2 fold change
RRIRERPPRLPRPRPRPTSSPRP | -0.303
RRIRSRPPRLPRPRPRPVELPRP | 0.105
RRIRNRPPRLPRPRPRPEVPPRP | 0.095
RRIRKRPPRLPRPRPRPFVQPRP | 0.034
RRIRVRPPRLPRPRPRPDAQPRP | -0.136
RRIRQRPPRLPRPRPRPARCPRP | 0.174
RRIRKRPPRLPRPRPRPRREPRP | 0.853
RRIRERPPRLPRPRPRPMIQPRP | -0.176
RRIRRRPPRLPRPRPRPGGMPRP | 0.235
RRIRKRPPRLPRPRPRPANVPRP | -0.196
RRIRIRPPRLPRPRPRPETPPRP | 0.207
RRIRTRPPRLPRPRPRPYSWPRP | -0.118
RRIRKRPPRLPRPRPRPWAGPRP | 0.115
RRIRTRPPRLPRPRPRPDLDPRP | 0.145
RRIRWRPPRLPRPRPRPEQMPRP | 0.222
RRIRMRPPRLPRPRPRPMTLPRP | 0.113
RRIRFRPPRLPRPRPRPRSRPRP | -0.016
RRIRIRPPRLPRPRPRPETNPRP | -0.264
RRIRERPPRLPRPRPRPCNSPRP | 0.00408
RRIRQRPPRLPRPRPRPSVTPRP | -0.0462
RRIRNRPPRLPRPRPRPDGDPRP | -0.194
RRIRCRPPRLPRPRPRPNVMPRP | -0.337
RRIRSRPPRLPRPRPRPPPTPRP | 0.914
RRIRERPPRLPRPRPRPMCLPRP | -0.38
RRIRPRPPRLPRPRPRPYAPPRP | -0.207

Sequence | shrunken log2 fold change
RRIRDRPPRLPRPRPRPAVLPRP | -0.014
RRIRKRPPRLPRPRPRPCVLPRP | 0.0725
RRIRARPPRLPRPRPRPRPTPRP | 0.867
RRIRNRPPRLPRPRPRPNCFPRP | 0.0424
RRIRMRPPRLPRPRPRPPAPPRP | 2.01
RRIRYRPPRLPRPRPRPYNFPRP | -0.246
RRIRMRPPRLPRPRPRPESDPRP | 3.34
RRIRVRPPRLPRPRPRPMGHPRP | 0.0767
RRIRCRPPRLPRPRPRPDSSPRP | -0.026
RRIRTRPPRLPRPRPRPTPCPRP | 0.124
RRIRKRPPRLPRPRPRPDGYPRP | -0.0936
RRIRWRPPRLPRPRPRPKPNPRP | 0.367
RRIRQRPPRLPRPRPRPIQRPRP | -0.0376
RRIRLRPPRLPRPRPRPEKWPRP | -0.0497
RRIRTRPPRLPRPRPRPGSSPRP | -0.209
RRIRVRPPRLPRPRPRPDTSPRP | -0.124
RRIRTRPPRLPRPRPRPLVHPRP | -0.282
RRIRGRPPRLPRPRPRPAQPPRP | 0.377
RRIRARPPRLPRPRPRPNSDPRP | 0.0804
RRIRERPPRLPRPRPRPNGMPRP | -0.0154
RRIRDRPPRLPRPRPRPMMKPRP | 0.157
RRIRPRPPRLPRPRPRPKEQPRP | 0.183
RRIRERPPRLPRPRPRPIRRPRP | -0.17
RRIRLRPPRLPRPRPRPGMMPRP | 0.0343
RRIRYRPPRLPRPRPRPFSQPRP | 0.0654

Sequence | shrunken log2 fold change
RRIRMRPPRLPRPRPRPSGKPRP | 0.222
RRIRMRPPRLPRPRPRPHTRPRP | 0.387
RRIRTRPPRLPRPRPRPFKIPRP | -0.0514
RRIRERPPRLPRPRPRPMDFPRP | -0.0298
RRIRLRPPRLPRPRPRPYVDPRP | -0.0393
RRIRRRPPRLPRPRPRPLWFPRP | 0.396
RRIRCRPPRLPRPRPRPPDFPRP | -0.00542
RRIRCRPPRLPRPRPRPWAWPRP | -0.105
RRIRKRPPRLPRPRPRPRNEPRP | 0.0551
RRIRLRPPRLPRPRPRPMYFPRP | -0.252
RRIRLRPPRLPRPRPRPIDIPRP | 0.00368
RRIRTRPPRLPRPRPRPWRGPRP | 0.123
RRIRRRPPRLPRPRPRPWRFPRP | 0.012
RRIRMRPPRLPRPRPRPYWIPRP | -0.157
RRIRTRPPRLPRPRPRPGHMPRP | -0.233
RRIRIRPPRLPRPRPRPNTGPRP | -0.663
RRIRIRPPRLPRPRPRPVLSPRP | -0.311
RRIRIRPPRLPRPRPRPIARPRP | 0.136
RRIRCRPPRLPRPRPRPHEIPRP | 0.322
RRIRNRPPRLPRPRPRPILSPRP | -0.00144
RRIRSRPPRLPRPRPRPGLPPRP | 0.225
RRIRVRPPRLPRPRPRPFIDPRP | 0.0294
RRIRCRPPRLPRPRPRPSARPRP | 0.16
RRIRRRPPRLPRPRPRPPVHPRP | 0.197
RRIRWRPPRLPRPRPRPEVRPRP | 0.495
